# Data published in paper doi:10.1101/2025.09.11.675134, “Biodistribution-Driven Discovery Identifies a Glycosidase-Cleavable Linker to Reprogram Radiotheranostics” (bioRxiv, 2025).
# Read-outs that look alike come from different tables or passages of the source.
# Legend:
# [1] = Ex vivo biodistribution of 86Y-labeled variants in AR42J tumor-bearing mice; details: athymic nude, mouse, iv, 1 ug, total radioactivity, mean; for tissue uptake at 1 h: 1 h post-injection; for tissue uptake at 4 h: 4 h post-injection; for tissue uptake at 24 h: 24 h post-injection
# Protocol: To independently confirm these observations, ex vivo biodistribution studies were conducted using the same ^86Y-labeled compounds at matched timepoints (Fig. S16; Table S3). […]
# For studies involving three variants (DOTA -TATE, DOTA-MVK(ε)-TATE, and DOTA-β-Gal-TATE), AR42J cells (5 × 10^6 cells per mouse) were subcutaneously inoculated into the right shoulder of the mice. Tumors were allowed to grow for 3 weeks, reaching a volume of 100 –200 mm³ before being used in subsequent experiments. For biodistribution or PET imaging studies, mice bearing subcutaneous AR42J tumors were administered 1.4 – 1.8 MBq (1 μg) of 111In-labeled DOTA-TATE variants or 2.7 – 4.9 MBq (1 μg) of 86Y-labeled DOTA-TATE variants via tail vein injection. Biodistribution studies with 111In-labeled DOTA -TATE variants were performed 1 hour post -injection (n = 3 per cohort), while studies with 86Y-labeled DOTA-TATE variants were conducted at 1, 4, and 24 hours post -injection (n = 3 per cohort). Mice were euthanized by CO2 asphyxiation, and 10 tissues, including tumors, were collected. All samples were weighed and counted on a gamma counter (2480 Wizard 3, Perkin Elmer Inc., Waltham, MA, USA). Results are presented as percentage of injected activity per gram (%IA/g) and mean values ± standard deviations. […]
# [2] = PET/CT quantification of 86Y-labeled variants in AR42J xenograft mice; format: in vivo; details: athymic nude, mouse, in vivo, iv, total radioactivity
# Protocol: For studies involving three variants (DOTA -TATE, DOTA-MVK(ε)-TATE, and DOTA-β-Gal-TATE), AR42J cells (5 × 10^6 cells per mouse) were subcutaneously inoculated into the right shoulder of the mice. Tumors were allowed to grow for 3 weeks, reaching a volume of 100 –200 mm³ before being used in subsequent experiments. For biodistribution or PET imaging studies, mice bearing subcutaneous AR42J tumors were administered 1.4 – 1.8 MBq (1 μg) of 111In-labeled DOTA-TATE variants or 2.7 – 4.9 MBq (1 μg) of 86Y-labeled DOTA-TATE variants via […]
# tail vein injection. […]
# PET imaging to assess the uptake of three 86Y-labeled DOTA-TATE variants (2.7 – 4.9 MBq, 1 μg) in the kidney and tumor was performed at 1, 4, and 24 hours post-injection (n = 3 per cohort) in mice bearing AR42J tumors using the MRS*PET/CT 120 scanner (MR Solutions, Guildford, UK). PET/CT data acquisition was managed using Preclinical Scan software (version 4.2.4.0, MR Solutions). Mice were anesthetized with 2% isoflurane, and static PET sc ans were acquired over 10 min. CT scans were obtained for attenuation correction and anatomical co-registration.
# PET data were reconstructed using three-dimensional ordered-subsets expectation maximization, and were subsequently normalized, decay - and dead-time–corrected prior to analysis. PET/CT images were analyzed using MIM software (version 7.2.7, MIM Software Inc., Beachwood, OH, USA), and the quantitative evaluation of the maximum standardized uptake (SUVmax) and the average standardized uptake values (SUVmean) in the kidney and tumor were also performed. […]
# [3] = blood, ex vivo, n = 3, read-out: Blood uptake
# [4] = femur, ex vivo, n = 3, read-out: Femur uptake
# [5] = heart, ex vivo, n = 3, read-out: Heart uptake
# [6] = intestine, ex vivo, n = 3, read-out: Intestine uptake
# [7] = ex vivo, n = 3, read-out: Tumor uptake
# [8] = kidney, ex vivo, n = 3, read-out: Kidney uptake
# [9] = liver, ex vivo, n = 3, read-out: Liver uptake
# [10] = lung, ex vivo, n = 3, read-out: Lung uptake
# [11] = muscle, ex vivo, n = 3, read-out: Muscle uptake
# [12] = spleen, ex vivo, n = 3, read-out: Spleen uptake
compound,measurement,setting,value
"CSCC[C@H](NC(=O)CN1CCN(CC(=O)O)CCN(CC(=O)O)CCN(CC(=O)O)CC1)C(=O)N[C@H](C(=O)N[C@@H](CCCCNC(=O)CCCC(=O)N[C@H](Cc1ccccc1)C(=O)N[C@H]1CSSC[C@@H](C(=O)N[C@H](C(=O)O)[C@@H](C)O)NC(=O)[C@H]([C@@H](C)O)NC(=O)[C@H](CCCCN)NC(=O)[C@@H](Cc2c[nH]c3ccccc23)NC(=O)[C@H](Cc2ccc(O)cc2)NC1=O)C(=O)O)C(C)C [^86Y-DOTA-MVK(ε)-TATE, metal not drawn]",tissue uptake at 1 h,"[1]; blood, i.v. 1 μg (2.7–4.9 MBq), ex vivo gamma counting, n = 3, read-out: Blood uptake",0.32 %ID/g
same,tissue uptake at 4 h,[1]; [3],0.17 %ID/g
same,tissue uptake at 24 h,[1]; [3],0.02 %ID/g
same,tissue uptake at 1 h,[1]; [4],0.52 %ID/g
same,tissue uptake at 4 h,[1]; [4],0.21 %ID/g
same,tissue uptake at 24 h,[1]; [4],0.2 %ID/g
same,tissue uptake at 1 h,[1]; [5],0.35 %ID/g
same,tissue uptake at 4 h,[1]; [5],0.24 %ID/g
same,tissue uptake at 24 h,[1]; [5],0.08 %ID/g
same,tissue uptake at 1 h,[1]; [6],0.69 %ID/g
same,tissue uptake at 4 h,[1]; [6],0.46 %ID/g
same,tissue uptake at 24 h,[1]; [6],0.05 %ID/g
same,tissue uptake at 1 h,[1]; [7],5.02 %ID/g
same,tissue uptake at 4 h,[1]; [7],5.08 %ID/g
same,tissue uptake at 24 h,[1]; [7],4.53 %ID/g
same,tissue uptake at 1 h,[1]; [8],4.12 %ID/g
same,tissue uptake at 4 h,[1]; [8],3.78 %ID/g
same,tissue uptake at 24 h,[1]; [8],1.66 %ID/g
same,tissue uptake at 1 h,[1]; [9],0.17 %ID/g
same,tissue uptake at 4 h,[1]; [9],0.15 %ID/g
same,tissue uptake at 24 h,[1]; [9],0.06 %ID/g
same,tissue uptake at 1 h,[1]; [10],0.79 %ID/g
same,tissue uptake at 4 h,[1]; [10],0.47 %ID/g
same,tissue uptake at 24 h,[1]; [10],0.13 %ID/g
same,tissue uptake at 1 h,[1]; [11],0.45 %ID/g
same,tissue uptake at 4 h,[1]; [11],0.23 %ID/g
same,tissue uptake at 24 h,[1]; [11],0.09 %ID/g
same,tissue uptake at 1 h,[1]; [12],0.25 %ID/g
same,tissue uptake at 4 h,[1]; [12],0.22 %ID/g
same,tissue uptake at 24 h,[1]; [12],0.14 %ID/g
same,SUV at 4 h,[2]; Kidney SUVmax,0.42 ± 0.07 SUV
same,SUV at 24 h,[2]; Kidney SUVmax,0.21 ± 0.01 SUV
same,SUV at 1 h,[2]; Tumor SUVmax,1.31 ± 0.06 SUV
same,SUV at 4 h,[2]; Tumor SUVmax,1.06 ± 0.14 SUV
same,SUV at 24 h,[2]; Tumor SUVmax,1.04 ± 0.13 SUV
